Results published in paper PMC6530877 (PLoS Pathogens, 2019).

How the values were obtained:
Assay in all cases: ELISA; Fab fragments (IGH526, HCV1) coated ~2 μg per well; purified E1E2-DHD15 or E1E2-Fc serially diluted in 25 mM Tris, 150 mM NaCl, pH 7.4, 0.05% Tween-20, 1% BSA; detection by anti-FLAG M2 and/or HRP anti-mouse IgG
Details in all cases: both partners purified
[1] = target: T1, E1E2-Fc oligomer (oligomeric SEC fraction of Fc-tagged HCV E1E2), expressed in HEK293 cells (hepatitis C virus genotype 1b, Con1, UniProt Q9WMX2)
T1 construct: also called E1E2 oligomer; oligomeric E1E2; source: HEK293F, transient (pMlink), secreted, purified (oligomer peak of the SEC)

[2] = target: T2, E1E2-DHD15 heterodimer (HCV E1 and E2 ectodomains with the de novo designed heterodimeric tag DHD15), … (hepatitis C virus genotype 1b, Con1, UniProt Q9WMX2)
T2 construct: source: HEK293F, transient (pMlink), secreted, purified

[3] = target: T3, E1E2-DHD15 heterodimer (HCV E1 and E2 ectodomains with the de novo designed heterodimeric tag DHD15), insect … (hepatitis C virus genotype 1b, Con1, UniProt Q9WMX2)
T3 construct: source: High-5 insect cells (baculovirus), secreted, purified (Ni-NTA, Flag M2, SEC)

[4] = target: T4, E1E2-Fc heterodimer (HCV E1 and E2 ectodomains, Fc-tagged), mammalian cell expressed (hepatitis C virus genotype 1b, Con1, UniProt Q9WMX2)
T4 construct: source: HEK293F, transient (pMlink), secreted, purified

Measured: binding result

B1: Fab fragment of neutralizing antibody HCV1 (Fab, V domains shown)
VH: EVQLLESGGGVVQPGRSLRLSCTASGFTFNNYGMHWVRQTPGKGLEWLAVIWFDENNKYYADSVRGRFTISRDNSKNTLFLQMNSLKTEDTAMYYCARDISLVRDAFIYFDFWGLGTLVTVSS
VL: ELTLTQSPATLSLSPGERATLSCRASQSVSSYLAWYQQKPGQAPRLLIYDASNRATGIPARFSGSGSGTDFTLTISSLEPEDFAVYYCQQRSNWITFGQGTRLEIK
notes: source: HEK293F, transient (pMlink), purified
binds: all assays above
